Results reported in paper PMC7023490, “An M29 Aminopeptidase from Listeria Monocytogenes Contributes to In Vitro Bacterial Growth but not to Intracellular Infection” (Microorganisms, 2020).

Key:
Test in all cases: purified protein
Conditions in all cases: 25 mM Tris-HCl pH 7.4, 37 °C, 0.05 μM enzyme, no added metal mentioned
purified protein [1] = substrate: CC(C)C[C@H](N)C(=O)Nc1ccc([N+](=O)[O-])cc1
purified protein [2] = substrate: C[C@H](N)C(=O)Nc1ccc([N+](=O)[O-])cc1
purified protein [3] = substrate: N=C(N)NCCC[C@H](N)C(=O)Nc1ccc([N+](=O)[O-])cc1
purified protein [4] = substrate: NCCCC[C@H](N)C(=O)Nc1ccc([N+](=O)[O-])cc1
purified protein [5] = substrate: N[C@@H](Cc1ccccc1)C(=O)Nc1ccc([N+](=O)[O-])cc1

B1: LmAmpII (Listeria monocytogenes EGD-e) (protein)
chain: MTVFSEKLEKYAELIVKVGVNVQPEQKVVIMAPVDAAPLVRLISKYAFEVGAEDVIMDWRDEELGALRYKNAPLRVFESAPVHRVAEKTELAKEGACFISITSEDPDLLNGVDSNKIATFQKTMGGAMSEFRELMQANVVSWTVVAAASQGWAAKVFPDLTPAEQMETLWEAIFETTRINTENPVETWKNHDQTLAAKAESLNEKQFTSLHYTAPGTDLTIGLPKNHLWVGAGSKNKKGHEFMANMPTEEVFCCADKLKVEGYVSSTKPLSYAGNIIDDFKITFEKGRIVGVEAASGEEILKDLIATDEGSHYLGEVALVPDPSPISQSGILFYNTLFDENASNHLAIGSAYAFNVKGGEEMSREELEAAGVNNSLTHVDFMIGSSEMDIDGVTESGEVVPVFRKGDWAF
- Km (purified protein [1]): 95.62 µM
- Km (purified protein [2]): 340 µM
- Km (purified protein [3]): 24.94 µM
- Km (purified protein [4]): 165.6 µM
- Km (purified protein [5]): 399.6 µM
